Results on 7 molecules are retold here after patent US20200024322A1 (Eli Lilly, published 2020).

Assay [1] addresses T1, human GIP receptor (human, UniProt P48546 22-466).
T1 construct: whole, on cells; also called hGIPR; hGIP-R
T1 sequence (looked up): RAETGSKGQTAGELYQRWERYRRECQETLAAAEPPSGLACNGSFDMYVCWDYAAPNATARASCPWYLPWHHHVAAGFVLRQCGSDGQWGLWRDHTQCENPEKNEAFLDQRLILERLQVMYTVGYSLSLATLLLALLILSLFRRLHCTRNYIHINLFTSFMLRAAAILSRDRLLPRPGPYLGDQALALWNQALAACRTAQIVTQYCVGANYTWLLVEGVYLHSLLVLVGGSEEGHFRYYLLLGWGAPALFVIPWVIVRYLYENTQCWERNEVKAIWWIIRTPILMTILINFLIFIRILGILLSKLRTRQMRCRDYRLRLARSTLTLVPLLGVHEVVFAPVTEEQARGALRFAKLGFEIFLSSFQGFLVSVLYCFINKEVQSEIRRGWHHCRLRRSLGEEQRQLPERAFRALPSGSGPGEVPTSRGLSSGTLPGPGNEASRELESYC
Nature of the assay: [125I]-GIP competition SPA, hGIPR membranes. As to the method:
The binding buffer contains 25 mM HEPES, pH 7.4, 2.5 mM CaCl₂, 1 mM MgCl₂, 0.1% (w/v) bacitracin, 0.003% (w/v) TWEEN®-20, and Roche Complete™ Protease Inhibitors without EDTA. […] Plates are sealed and mixed on a plate shaker (setting 6) for 1 minute and read with a PerkinElmer Trilux MicroBeta® scintillation counter after 2.5 to 12 hours of incubation/settling time at room temperature.
Data are analyzed using four-parameter (curve maximum, curve minimum, IC₅₀, Hill slope) nonlinear regression routines (Genedata Screener, version 12.0.4, Genedata AG, Basal, Switzerland). […] Values for Kᵢ are reported as the geometric mean, with error expressed as the standard error of the mean (SEM) and n is equal to the number of independent replicates (determined in assays performed on different days). Geometric Means are calculated as follows: […]

Assay [2] has as its target T2, human GIP receptor (human, UniProt P48546 22-466).
T2 construct: whole, on cells; Used as crude membranes of stably transfected CHO cells; also called hGIPR
T2 sequence (looked up): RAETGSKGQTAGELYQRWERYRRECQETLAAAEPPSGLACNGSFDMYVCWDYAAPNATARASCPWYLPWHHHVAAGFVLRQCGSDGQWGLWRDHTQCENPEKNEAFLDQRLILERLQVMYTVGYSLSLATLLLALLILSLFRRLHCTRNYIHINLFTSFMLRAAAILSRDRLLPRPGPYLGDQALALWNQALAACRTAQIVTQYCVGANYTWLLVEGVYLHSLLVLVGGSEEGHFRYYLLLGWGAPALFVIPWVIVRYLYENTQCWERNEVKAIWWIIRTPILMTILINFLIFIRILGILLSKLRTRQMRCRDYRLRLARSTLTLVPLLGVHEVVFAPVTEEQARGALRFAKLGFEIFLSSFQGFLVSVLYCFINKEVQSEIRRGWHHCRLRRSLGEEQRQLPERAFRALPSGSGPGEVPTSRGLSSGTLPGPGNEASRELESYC
The assay is described as follows: SPA, [125I]-GIP displacement, hGIPR membranes.

Assay [3] concerns the target T3, human glucagon receptor (human, UniProt P47871 26-477).
T3 construct: whole, on cells; Used as crude membranes of stably transfected HEK293 cells; also called hGcgR; hGLcgR
The assay is described as follows: SPA, [125I]-Gcg displacement, hGcgR membranes.

In assay [4] the target is T4, human GLP-1 receptor (human, UniProt P43220 24-463).
T4 construct: whole, on cells; Used as crude membranes of stably transfected HEK293 cells; also called hGLP1R; hGLP-1R
Nature of the assay: SPA, [125I]-GLP-1 displacement, hGLP-1R membranes.

Numbered stars: 1 amine (or outer) side, 2 acyl side, 3 side chain; on linkers, the order of the positions; unused ones are H or OH. Square brackets hold non-standard residues; d marks the D form. Side chains are listed from the residue outwards. Ends that are not written are not given here. * marks the point of attachment. C20 diacid = O=C(O)CCCCCCCCCCCCCCCCCCC(=O)*; γGlu = O=C(O)[C@H](CCC(=O)[*:2])N[*:1]; αMeL = CC(C)C[C@](C)(N)C(=O)O; αMeK = C[C@](N)(CCCCN)C(=O)O; Dab = NCC[C@H](N)C(=O)O; AEEA = NCCOCCOCC(=O)O; Aib = CC(C)(N)C(=O)O

T3 sequence (P47871 26-477): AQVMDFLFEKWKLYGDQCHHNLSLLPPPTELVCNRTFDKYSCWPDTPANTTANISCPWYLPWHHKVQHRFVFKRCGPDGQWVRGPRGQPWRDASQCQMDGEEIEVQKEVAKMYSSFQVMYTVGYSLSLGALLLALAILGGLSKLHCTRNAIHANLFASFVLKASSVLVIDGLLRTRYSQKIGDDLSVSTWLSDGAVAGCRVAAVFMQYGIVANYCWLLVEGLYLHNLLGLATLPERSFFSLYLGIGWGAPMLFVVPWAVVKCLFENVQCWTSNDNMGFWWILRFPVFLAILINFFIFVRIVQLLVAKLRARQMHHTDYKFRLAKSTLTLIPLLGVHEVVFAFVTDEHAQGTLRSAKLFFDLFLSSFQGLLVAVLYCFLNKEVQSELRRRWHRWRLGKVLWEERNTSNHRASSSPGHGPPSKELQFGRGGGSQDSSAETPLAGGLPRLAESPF

B1: Example 330 (peptide)
peptide: Y[Aib]EGTFTSDYSILLDEK([AEEA-AEEA-γGlu-C20 diacid])AQ[Aib]AFIEYLIAGGPSSGAPPPS-NH2
modifications: N-terminus assumed
SMILES: CC[C@H](C)[C@H](NC(=O)[C@H](CC(C)C)NC(=O)[C@H](Cc1ccc(O)cc1)NC(=O)[C@H](CCC(=O)O)NC(=O)[C@@H](NC(=O)[C@H](Cc1ccccc1)NC(=O)[C@H](C)NC(=O)C(C)(C)NC(=O)[C@H](CCC(N)=O)NC(=O)[C@H](C)NC(=O)[C@H](CCCCNC(=O)COCCOCCNC(=O)COCCOCCNC(=O)CC[C@H](NC(=O)CCCCCCCCCCCCCCCCCCC(=O)O)C(=O)O)NC(=O)[C@H](CCC(=O)O)NC(=O)[C@H](CC(=O)O)NC(=O)[C@H](CC(C)C)NC(=O)[C@H](CC(C)C)NC(=O)[C@@H](NC(=O)[C@H](CO)NC(=O)[C@H](Cc1ccc(O)cc1)NC(=O)[C@H](CC(=O)O)NC(=O)[C@H](CO)NC(=O)[C@@H](NC(=O)[C@H](Cc1ccccc1)NC(=O)[C@@H](NC(=O)CNC(=O)[C@H](CCC(=O)O)NC(=O)C(C)(C)NC(=O)[C@@H](N)Cc1ccc(O)cc1)[C@@H](C)O)[C@@H](C)O)[C@@H](C)CC)[C@@H](C)CC)C(=O)N[C@@H](C)C(=O)NCC(=O)NCC(=O)N1CCC[C@H]1C(=O)N[C@@H](CO)C(=O)N[C@@H](CO)C(=O)NCC(=O)N[C@@H](C)C(=O)N1CCC[C@H]1C(=O)N1CCC[C@H]1C(=O)N1CCC[C@H]1C(=O)N[C@@H](CO)C(N)=O
The molecule B1 gave a Ki in assay [1] of 0.114 nM.
With H[Aib]EGTFTSDYSI[αMeL]LDKK([Dab-AEEA-Dab-AEEA-C20 diacid])AQ[αMeK]AFIQYLLA[Aib]GPSSGAPKPS-NH2 [Example 18], the Ki is 0.0798 nM in assay [2], 50.1 nM in assay [3] and 0.319 nM in assay [4].
With H[Aib]EGTFTSDYSI[αMeL]LDKK([Dab-AEEA-Dab-AEEA-C20 diacid])AQ[αMeK]AFIQYLLA[Aib]GPSSGAPPPS-NH2 [Example 19], the Ki in assay [2] worked out at 0.0518 nM; in assay [3], 60.5 nM; in assay [4], 0.24 nM.

B2: Example 15 (peptide)
peptide: H[Aib]EGTFTSDYSILLDKK([AEEA-AEEA-γGlu-C20 diacid])AQ[Aib]AFIEYLLE[Aib]GPSSGAPPPS-NH2
modifications: N-terminus assumed
SMILES: CC[C@H](C)[C@H](NC(=O)[C@H](Cc1ccccc1)NC(=O)[C@H](C)NC(=O)C(C)(C)NC(=O)[C@H](CCC(N)=O)NC(=O)[C@H](C)NC(=O)[C@H](CCCCNC(=O)COCCOCCNC(=O)COCCOCCNC(=O)CC[C@H](NC(=O)CCCCCCCCCCCCCCCCCCC(=O)O)C(=O)O)NC(=O)[C@H](CCCCN)NC(=O)[C@H](CC(=O)O)NC(=O)[C@H](CC(C)C)NC(=O)[C@H](CC(C)C)NC(=O)[C@@H](NC(=O)[C@H](CO)NC(=O)[C@H](Cc1ccc(O)cc1)NC(=O)[C@H](CC(=O)O)NC(=O)[C@H](CO)NC(=O)[C@@H](NC(=O)[C@H](Cc1ccccc1)NC(=O)[C@@H](NC(=O)CNC(=O)[C@H](CCC(=O)O)NC(=O)C(C)(C)NC(=O)[C@@H](N)Cc1c[nH]cn1)[C@@H](C)O)[C@@H](C)O)[C@@H](C)CC)C(=O)N[C@@H](CCC(=O)O)C(=O)N[C@@H](Cc1ccc(O)cc1)C(=O)N[C@@H](CC(C)C)C(=O)N[C@@H](CC(C)C)C(=O)N[C@@H](CCC(=O)O)C(=O)NC(C)(C)C(=O)NCC(=O)N1CCC[C@H]1C(=O)N[C@@H](CO)C(=O)N[C@@H](CO)C(=O)NCC(=O)N[C@@H](C)C(=O)N1CCC[C@H]1C(=O)N1CCC[C@H]1C(=O)N1CCC[C@H]1C(=O)N[C@@H](CO)C(N)=O
For the molecule B2, the values for the Ki in assay [2], in assay [3] and in assay [4] were 0.284 nM, 130 nM and 2.19 nM, respectively.

B3: Example 16 (peptide)
peptide: H[Aib]EGTFTSDYSILLDKK([AEEA-AEEA-γGlu-C20 diacid])AQ[Aib]AFIEYLIE[Aib]GPSSGAPPPS-NH2
modifications: N-terminus assumed
SMILES: CC[C@H](C)[C@H](NC(=O)[C@H](Cc1ccccc1)NC(=O)[C@H](C)NC(=O)C(C)(C)NC(=O)[C@H](CCC(N)=O)NC(=O)[C@H](C)NC(=O)[C@H](CCCCNC(=O)COCCOCCNC(=O)COCCOCCNC(=O)CC[C@H](NC(=O)CCCCCCCCCCCCCCCCCCC(=O)O)C(=O)O)NC(=O)[C@H](CCCCN)NC(=O)[C@H](CC(=O)O)NC(=O)[C@H](CC(C)C)NC(=O)[C@H](CC(C)C)NC(=O)[C@@H](NC(=O)[C@H](CO)NC(=O)[C@H](Cc1ccc(O)cc1)NC(=O)[C@H](CC(=O)O)NC(=O)[C@H](CO)NC(=O)[C@@H](NC(=O)[C@H](Cc1ccccc1)NC(=O)[C@@H](NC(=O)CNC(=O)[C@H](CCC(=O)O)NC(=O)C(C)(C)NC(=O)[C@@H](N)Cc1c[nH]cn1)[C@@H](C)O)[C@@H](C)O)[C@@H](C)CC)C(=O)N[C@@H](CCC(=O)O)C(=O)N[C@@H](Cc1ccc(O)cc1)C(=O)N[C@@H](CC(C)C)C(=O)N[C@H](C(=O)N[C@@H](CCC(=O)O)C(=O)NC(C)(C)C(=O)NCC(=O)N1CCC[C@H]1C(=O)N[C@@H](CO)C(=O)N[C@@H](CO)C(=O)NCC(=O)N[C@@H](C)C(=O)N1CCC[C@H]1C(=O)N1CCC[C@H]1C(=O)N1CCC[C@H]1C(=O)N[C@@H](CO)C(N)=O)[C@@H](C)CC
Take B3: the results for the Ki in assay [2], in assay [3] and in assay [4] were 0.0841 nM, 371 nM and 2.78 nM, respectively.

B4: Example 17 (peptide)
peptide: H[Aib]EGTFTSDYSILLDKIAQK([AEEA-AEEA-γGlu-C20 diacid])AFIEYLLE[Aib]GPSSG-NH2
modifications: N-terminus assumed
SMILES: CC[C@H](C)[C@H](NC(=O)[C@H](CCCCN)NC(=O)[C@H](CC(=O)O)NC(=O)[C@H](CC(C)C)NC(=O)[C@H](CC(C)C)NC(=O)[C@@H](NC(=O)[C@H](CO)NC(=O)[C@H](Cc1ccc(O)cc1)NC(=O)[C@H](CC(=O)O)NC(=O)[C@H](CO)NC(=O)[C@@H](NC(=O)[C@H](Cc1ccccc1)NC(=O)[C@@H](NC(=O)CNC(=O)[C@H](CCC(=O)O)NC(=O)C(C)(C)NC(=O)[C@@H](N)Cc1c[nH]cn1)[C@@H](C)O)[C@@H](C)O)[C@@H](C)CC)C(=O)N[C@@H](C)C(=O)N[C@@H](CCC(N)=O)C(=O)N[C@@H](CCCCNC(=O)COCCOCCNC(=O)COCCOCCNC(=O)CC[C@H](NC(=O)CCCCCCCCCCCCCCCCCCC(=O)O)C(=O)O)C(=O)N[C@@H](C)C(=O)N[C@@H](Cc1ccccc1)C(=O)N[C@H](C(=O)N[C@@H](CCC(=O)O)C(=O)N[C@@H](Cc1ccc(O)cc1)C(=O)N[C@@H](CC(C)C)C(=O)N[C@@H](CC(C)C)C(=O)N[C@@H](CCC(=O)O)C(=O)NC(C)(C)C(=O)NCC(=O)N1CCC[C@H]1C(=O)N[C@@H](CO)C(=O)N[C@@H](CO)C(=O)NCC(N)=O)[C@@H](C)CC
Take B4: the Ki stood at 0.606 nM in assay [2], 261 nM in assay [3] and 7.63 nM in assay [4].

B5: Example 22 (peptide)
peptide: Y[Aib]EGTFTSDYSI[αMeL]LDEK([AEEA-AEEA-γGlu-C20 diacid])AQ[αMeK]AFIEYLLE[Aib]GPSSGAPPPS-NH2
modifications: N-terminus assumed
SMILES: CC[C@H](C)[C@H](NC(=O)[C@H](Cc1ccccc1)NC(=O)[C@H](C)NC(=O)[C@](C)(CCCCN)NC(=O)[C@H](CCC(N)=O)NC(=O)[C@H](C)NC(=O)[C@H](CCCCNC(=O)COCCOCCNC(=O)COCCOCCNC(=O)CC[C@H](NC(=O)CCCCCCCCCCCCCCCCCCC(=O)O)C(=O)O)NC(=O)[C@H](CCC(=O)O)NC(=O)[C@H](CC(=O)O)NC(=O)[C@H](CC(C)C)NC(=O)[C@](C)(CC(C)C)NC(=O)[C@@H](NC(=O)[C@H](CO)NC(=O)[C@H](Cc1ccc(O)cc1)NC(=O)[C@H](CC(=O)O)NC(=O)[C@H](CO)NC(=O)[C@@H](NC(=O)[C@H](Cc1ccccc1)NC(=O)[C@@H](NC(=O)CNC(=O)[C@H](CCC(=O)O)NC(=O)C(C)(C)NC(=O)[C@@H](N)Cc1ccc(O)cc1)[C@@H](C)O)[C@@H](C)O)[C@@H](C)CC)C(=O)N[C@@H](CCC(=O)O)C(=O)N[C@@H](Cc1ccc(O)cc1)C(=O)N[C@@H](CC(C)C)C(=O)N[C@@H](CC(C)C)C(=O)N[C@@H](CCC(=O)O)C(=O)NC(C)(C)C(=O)NCC(=O)N1CCC[C@H]1C(=O)N[C@@H](CO)C(=O)N[C@@H](CO)C(=O)NCC(=O)N[C@@H](C)C(=O)N1CCC[C@H]1C(=O)N1CCC[C@H]1C(=O)N1CCC[C@H]1C(=O)N[C@@H](CO)C(N)=O
In the case of B5, the Ki amounted to 0.624 nM in assay [2], 53.4 nM in assay [3] and 23.1 nM in assay [4].

In general, Ki refers to a dissociation constant, usually derived from enzyme kinetics or from competition with a known ligand. Low readings indicate tighter binding, high ones weaker binding.
